Source: patent US20120028894A1

Molecular target: Insulin-Degrading Enzyme (IDE), species not stated (Homo sapiens (Human)) (UniProt P14735)
Experiment: cell-based or functional assay

insulin degradation by IDE without inhibitor, 16 hours at 37 C, insulin ELISA (% degradation): 60
Substance: Insulin isolated from bovine pancreas (SIGMA) (from UniProt P01317 85-105; P01317 25-54) (ligand)
